Test results: the domain aggregation screens of Martell et al. (2025)

Assay: soluble fraction after stress (log2 fold change); higher = more stays soluble; pooled small domains, quantitative proteomics
Settings: stress: 50 degC
Procedure, shortened: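 The stress applied to every library was 50°C. These custom libraries of small protein domains were pooled and measured at high throughput with quantitative proteomics as the read-out. Aggregation propensity is expressed as the base-two logarithm of the fold change in how much of each protein remains soluble. The higher the value, the more of that protein stays in solution.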
With “HMGRSTQVPGVEKMTYSQAVQLLHDHGFRVDIRDSLYRDDIKPGHVIEQFPKAKSIVKPGRKIFLYINAV” the “soluble fraction (log2)” value was -1.32.
For “HMELSAEGWVDGTGVRMRASASTDSEVVRVTEDGESLDITGVSGTWYRVTAGGVSGYIRSDYVSLEEP”, the “soluble fraction (log2)” value was -0.287.
For “HMDEIDYSKYSITTSNRIINIDGVQSKVELFDVSGRSIQSTMVTGKFSSRPLNAGFYIIHVDGYSVKVSV”, the “soluble fraction (log2)” value was -0.889.
In the case of “HMDDVIDVYATYDVSPTNQISNIKLYSDAAHANPVTGEAGKSYNDITEGHPGYQFRWSGTTWVPI”, the “soluble fraction (log2)” value is reported as -0.295.
For “HMPVLDETVPAALDGERIDRVVALLADVSRNRAGIAIAAGSVRLDGAVVTQRSRKVRADEELVVDGLER”, the “soluble fraction (log2)” value was -0.015.
In the case of “HMPVFYVTGNRVNFRAGPSTGDRVIGSLSQGAAVEVLGPTDDAWINIRDSDGRVGYMSAQFLSQ”, the “soluble fraction (log2)” value is reported as -0.069.
For “HMRQIRELFRLKFGSLLPTSDRQIAAQLGVARSTVAEYLERARAAGLSWPLPLDLSDADLEERLFA”, the “soluble fraction (log2)” value was -2.75.
With “HMGIDISAFSETALQVLRLQAAGYTAKEISEKLHITPRTVKYHASQNYRKLDAKNLVDAVQIAQALHI” the “soluble fraction (log2)” value was -1.26.
With “HMLEIDPPVDEISVSRKAFYEAAGYKVNPYTHIPPRYRKEFEEHSFVVMSWPRELPEETYRKFDRYLRDV” the “soluble fraction (log2)” value was 0.103.
For “HMGLIDNLTRIMEKKNISAYQLEKAGIVKQTTFTSWKKGTQPALDKIIKIMQYIEVTPNELFGY”, the “soluble fraction (log2)” value was -1.39.
In the case of “HMGKNISEEDMLGYFKKIDLDYDAETKEVIAPTFRHDLFRLADLAEEVARFFGYDNIPTTLPSGEAT”, the “soluble fraction (log2)” value is reported as 0.0416.
For “HMGMTAPIPGVVLKVSVLPGQKVERGDELLTIEAMKMFNVMRSPSSGTIATVHIKDGDRVVQGQPLVTFA”, the “soluble fraction (log2)” value was 0.025.
For “HMFTRFTVAQDGWTIGGFTAKEMAVSTAKQHAVDTGKPVTVVAHVAGGGSREAIFNSDGTNDKIWN”, the “soluble fraction (log2)” value was 0.0601.
In the case of “HMRAPEIEAARSDLDVGQTVQIVRHLHGNQYEVFYRGAQWQAEAVGSSGANDAQTAVITGKNGNILLIQI”, the “soluble fraction (log2)” value is reported as -0.0658.
With “HMLDVNLIFSRPGFSLSAAFTLHAGGITVLRGDSGSGKTTLADLLSGAIAPQKGRILSDGDIWFDAASGIN” the “soluble fraction (log2)” value was 0.22.
For “HMDEFHLSERERQILNLLVLGHTYKHIASDLNIAYATVNKHVSNVYAKLRVQSASEAVALAIRKGL”, the “soluble fraction (log2)” value was -0.899.
For “HMVPEMIRDVISKSIRDMGVLPDHMQINERIALIQSLKKQQILGIKGAVAETARQLGISVPTVYRYMKKG”, the “soluble fraction (log2)” value was -0.362.
For “HMTASKSTVSTPEKVVYHIVFPKETKYSIAKKYGITIEELEKRNPEIIPSLSVGQKLVIKGTAPK”, the “soluble fraction (log2)” value was -0.00327.
With “HMVPPELEFLQSLMKIEDISELTAAIENNRDAVTDDFKEMLETVIENISGAPDTDPKLLERLKTIRTVLA” the “soluble fraction (log2)” value was 0.0197.
With “HMHPVEPDDPDQHILFQHLRGQDQVHIDALIRLSGWTADKVSSTLLFMELQGLVKQLPGMYYALE” the “soluble fraction (log2)” value was -0.0844.
In the case of “HMKGSIFLDEATKMVDNSALKSLNTFLEEYARETNNQIFLISHQETPAEVTQIKLKKVGGETSYE”, the “soluble fraction (log2)” value is reported as 0.124.
In the case of “HMGAGDKQAQQASLMQIIALQKEGMALGLVEPKHLYHSFSKMIENAGFKDVQSFAVDPSTQQ”, the “soluble fraction (log2)” value is reported as -0.0552.
With “HMDSEEVYQMTKHKMDAAQISVAKRIHINLVLVKLLELHHLGYDLRHYHAQHHAFIKRLNLPEYFRFD” the “soluble fraction (log2)” value was -1.66.
For “HMKEGGGYGQLRLKEAAIQHAFDLQNALQFIAERGYQAHENTTLKEAANALNLKPIELLELLKSSQ”, the “soluble fraction (log2)” value was 0.281.
For “HMRTMFGQRLRLARKRAGLSMQALADRVTPSVSAQAISKYEADQMMPSSSVLVGLGKALGVSLDFLVGGQ”, the “soluble fraction (log2)” value was -0.536.
In the case of “HMGPAVGAIRVEGNKRVEPETVRTYLTFNVGDPYDLAKVDESLKALFATGLFQDVRIRREGNTVVIVVVEN”, the “soluble fraction (log2)” value is reported as -0.368.
For “HMFDGTLSIYPNPSKGIFNLDLLNVKDGEYTITVDNLLGQEVYSEIRNVINSSSKTLDLSNLTKGV”, the “soluble fraction (log2)” value was -0.173.
With “HMYYNQGILKSGASVYGEPGITSSHRLEIPSGSFVDIVQEKDEWVYYEKNHVNHGWVLRENIYIPSL” the “soluble fraction (log2)” value was 0.0681.
For “HMGMDALIGRRVFVSEEILPGDTGGRMAVDGDSWRAISVGTASNIPAGTEVRIRGHQSLVLEVEP”, the “soluble fraction (log2)” value was -0.116.
For “HMKIYDQVVDRIKDRISKGDMPQGSALPPERQLIDELNVSRSSLREGFRILEMMGLIESIPGKGRFVRTSR”, the “soluble fraction (log2)” value was -0.235.
